Laboratory results: paper PMC4767259 (Journal of nuclear medicine : official publication, Society …, 2015)

Legend:
[1] = intraarterial (left femoral artery) intervention, insulin 0.34-0.38 IU/kg, rats
[2] = tested on: leg muscles (lateral gastrocnemius) and systemic muscles (spinotrapezius); experiment: 18F-FDG uptake PET imaging of muscles, SUV time-activity curve slope analysis; format: in vivo, CD IGS rats; settings: SF group: insulin 3.39-48.48 IU/kg into tail vein, n = 3, mean ± SD

For Insulin, which Adverse events [1] is on record?
Its Adverse events is “No adverse events were observed”.

And the “baseline of the 18F-FDG uptake SUVs” value [2]?
The value was 0.7547 ± 0.1208.
